Test results from patent US7521540B2, “CYR61 compositions and methods” (Munin Corporation, priority 1996, dated 2009).
One block for each molecule: values may come before it.

How the values were obtained:
[1] = tested on: 1064SK primary human foreskin fibroblasts; test: Fibroblast adhesion assay (methylene blue, A620); assay type: cell-based; settings: for inhibition by anti-α6 antibody of binding mediated by the coated protein: anti-α6 20 μg/ml; for support of 1064SK fibroblast adhesion: protein coated on wells
Method: The ability of Cyr61 to mediate cell adhesion in normal fibroblasts was investigated. Microtiter wells were coated with purified recombinant Cyr61 protein, and 1064SK primary human foreskin fibroblasts were allowed to adhere under serum-free conditions. […] 50 μl cell suspensions were plated on microtiter wells coated with varying concentrations (0.5-5.0 μg/ml) of Cyr61 protein. After incubation at 37° C. for 30 minutes, adherent cells were fixed and stained with methylene blue.
In another experiment, microtiter wells were coated with either BSA, Cyr61 (2 μg/ml), or vitronectin (VN; 0.5 μg/ml) and blocked with affinity-purified anti-Cyr61 antibodies for one hour at 37° C. before 1064SK cells were plated.
The effects of divalent cations in cell adhesion to Cyr61 was also investigated. […] Data are means from triplicate determinations. […] Inhibition by Ca^2+ is characteristic of adhesion through some members of the β1 family of integrins, including receptors that bind type I collagen, laminin, and vitronectin (integrins α2β1, α6β1, and αVβ1) in fibroblasts, as well as the lymphocyte-specific integrin αLβ2.
The effects of RGD peptides on Cyr61-mediated fibroblast binding was tested by plating cells in wells coated with Cyr61 (2 μg/ml). Type I collagen (2 μg/ml) or vitronectin (0.5 μg/ml), 2 mM GRGDSP or GRGESP peptide was then added.
Cells were also pre-incubated with 40 μg/ml monoclonal antibodies against the integrin α5 or the integrin αV subunits at room temperature for 30 minutes, then plated on wells coated with Cyr61 (2 μg/ml), vitronectin (0.5 μg/ml) or fibronectin (FN, 1 μg/ml). […] The data are means, representative of three experiments.
The 1064 SK cells were also analyzed using the monoclonal antibody JBIA, which binds the β1 integrin subunit. Cells were pre-incubated with the antibody (50 μg/ml) before plating on microtiter wells coated with Cyr61 (2 μg/ml), Type I collagen (2 μg/ml), or vitronectin (0.5 μg/ml). […] Data are means, representative of three experiments.
To identify the specific β1 integrin that mediates fibroblast adhesion to Cyr61, the inhibitory effects of function-blocking monoclonal antibodies were tested against various integrin α subunits. […] The data are means, representative of at least three experiments.

NIH 3T3 fibroblasts = test: Thymidine incorporation (mitogen potentiation), NIH 3T3; assay type: cell-based, mouse; settings: bFGF 15 ng/ml or PDGF-BB 30 ng/ml
Method: More specifically, NIH 3T3 fibroblast cells were plated on 24-well plates at 3×10^4 cells/well and grown in DMEM with 10% fetal bovine serum (Intergen Co., Purchase, N.Y.) for 3-4 days and incubated with medium containing 0.2% FBS for the following 48 hours. The following compounds, at the parenthetically noted final concentrations, were then added to the plated cells in fresh DMEM containing 0.2% fbs and [^3H]-thymidine (1 μCi/ml final concentration; ICN Biomedicals, Inc., Costa Mesa, Calif.): bFGF (15 ng/ml), PDGF-BB (30 ng/ml), and murine Cyr61 (0.5-5 μg/ml). These compounds were added to individual plates according to the following pattern: 1) no supplementation; 2) murine Cyr61; 3) bFGF; 4) murine Cyr61 and bFGF; 5) PDGF-BB; and 6) murine Cyr61 and PDGF. After 18-20 hours of incubation, cells were washed with PBS and fixed with 10% trichloroacetic acid. DNA was dissolved in 0.1 N NaOH and thymidine incorporation was determined. […] Without any supplements, 3T3 cells incorporated approximately 1.8×10^4 cpm of [^3H]-thymidine, in the presence or absence of Cyr61. Cells exposed to bFGF alone incorporated about 1.2×10^5 cpm; cells contacting bFGF and murine Cyr61 incorporated 2×10^5 cpm. Cells receiving PDGF-BB incorporated about 1.2×10^5 cpm; and cells exposed to PDGF-BB and murine Cyr61 incorporated approximately 2.4×10^5 cpm.
DNA synthesis for HUVE cells and NIH 3T3 fibroblasts was measured by thymidine incorporation as described previously (Kireeva et al., [1996]) with minor modifications. HUVE cells were grown in 24-well plates to a subconfluent state, serum-starved for 24 hours and treated with F12K medium containing 10% fetal bovine serum (FBS), 1 μCi/ml [^3H]-thymidine and 10 ng/ml basic Fibroblast Growth Factor (bFGF) (Gibco-BRL, Inc.) with various concentrations of Cyr61 and Fisp12 as indicated. NIH 3T3 fibroblasts were grown to subconlfluence, serum-starved for 48 hours, and treated with Minimal Essential Medium (MEM) containing 0.5% FBS, 1 μCi/ml [^3H]-thymidine, bFGF and various concentrations of Cyr61 or Fisp12. Thymidine incorporation into the trichloroacetic acid-insoluble fraction was determined after 24 hour incubation. Logarithmically grown mink lung epithelial cells (Mv1lu, CCL64) were treated with various concentrations of TGF-β1 (Gibco-BRL) and 2 μg/ml of Cyr61 or Fisp12 for 18 hours; [^3H]-thymidine was then added to 1 μCi/ml for 2 hours. Thymidine incorporation was determnined as described above.

[2] = Heparin binding assay (salt elution from heparin-Sepharose/agarose)
[3] = tested on: primary human foreskin fibroblasts; test: Cyr61-regulated gene expression (multi-gene blot, Northern); assay type: cell-based
Method: Purified, soluble, recombinant Cyr61 protein was added to cultures of primary human foreskin fibroblasts for 24 hours. From these cells, mRNA was isolated for preparation of probes to hybridize to a multi-gene blot (Clontech Atlas Human Array 1.2 cat no. 7850-1) containing about 650 genes. The levels of expression of these genes in Cyr61-treated cells were compared to that of control cells. […] These findings have been confirmed by Northern blot analysis showing increases or decreases of the mRNAs in question in Cyr61-treated cells. A time course of expression changes has been established. In particular, by 6 hours after its addition, Cyr61 has induced expression of VEGF-A mRNA and the induction is still evident at 12 and 24 hours post-addition. Also at 12 and 24 hours post-addition, Cyr61 has induced expression of VEGF-A polypeptide. With respect to VEGF-C, induction of mRNA is clearly evident 12 hours after addition of Cyr61 and the induction persists at least through 24 hours post-addition. Cyr61 is expected to induce the expression of VEGF-C polypeptide with similar kinetics.

[4] = tested on: 1064SK human skin fibroblasts; test: Human skin fibroblast migration; assay type: cell-based; settings: 1064SK cells

B1: heparatinase: Enzyme used to pretreat cells (heparinase I, 2 U/ml) (protein, UniProt Q05819 22-384, looked up)
Heparin lyase I: QQKKSGNIPYRVNVQADSAKQKAIIDNKWVAVGINKPYALQYDDKLRFNGKPSYRFELKAEDNSLEGYAAGETKGRTELSYSYATTNDFKKFPPSVYQNAQKLKTVYHYGKGICEQGSSRSYTFSVYIPSSFPDNATTIFAQWHGAPSRTLVATPEGEIKTLSIEEFLALYDRMIFKKNIAHDKVEKKDKDGKITYVAGKPNGWKVEQGGYPTLAFGFSKGYFYIKANSDRQWLTDKADRNNANPENSEVMKPYSSEYKTSTIAYKMPFAQFPKDCWITFDVAIDWTKYGKEANTILKPGKLDVMMTYTKNKKPQKAHIVNQQEILIGRNDDDGYYFKFGIYRVGNSTVPVTYNLSGYSETAR
1064SK adhesion to Cyr61-coated wells with agent ([1]; Cyr61 2 μg/ml, agent at the level stated in the block, Mg2+ 5.0 mM after EDTA): 0.13 A620 | 1064SK adhesion to fibronectin-coated wells with agent ([1]; fibronectin 1 μg/ml): 0.66 A620 | 1064SK adhesion to vitronectin-coated wells with agent ([1]; vitronectin 0.5 μg/ml): 0.63 A620

B2: PDGF-BB: Platelet-Derived Growth Factor, BB isoform (protein, UniProt P01127 82-190, looked up)
Platelet-derived growth …: SLGSLTIAEPAMIAECKTRTEVFEISRRLIDRTNANFLVWPPCVEVQRCSGCCNNRNVQCRPTQVQLRPVQVRKIEIVRKKPIFKKATVTLEDHLACKCETVAAARPVT
modifications: BB homodimer
notes: Platelet-Derived Growth Factor, BB isoform
[3H]-thymidine incorporation, growth factor alone (NIH 3T3 fibroblasts): about 1.2×10^5 cpm

B3: decorin: Decorin from Sigma (protein, UniProt P21793 31-360, looked up)
Decorin: DEASGIGPEEHFPEVPEIEPMGPVCPFRCQCHLRVVQCSDLGLEKVPKDLPPDTALLDLQNNKITEIKDGDFKNLKNLHTLILINNKISKISPGAFAPLVKLERLYLSKNQLKELPEKMPKTLQELRVHENEITKVRKSVFNGLNQMIVVELGTNPLKSSGIENGAFQGMKKLSYIRIADTNITTIPQGLPPSLTELHLDGNKITKVDAASLKGLNNLAKLGLSFNSISAVDNGSLANTPHLRELHLNNNKLVKVPGGLADHKYIQVVYLHNNNISAIGSNDFCPPGYNTKKASYSGVSLFSNPVQYWEIQPSTFRCVYVRAAVQLGNYK
concentration that inhibited cell adhesion to Cyr61 ([1]; in cell suspension): 10 µg/mL

inhibition by anti-α6 antibody of binding mediated by the coated protein [1]: 69%
B4: H1: Cyr61 variant, lysine/arginine of heparin-binding motif at residues 280-290 replaced with alanine (protein)
chain: TCPAACHCPLEAPKCAPGVGLVRDGCGCCKVCAKQLNEDCSKTQPCDHTKGLECNFGASSTALKGICRAQSEGRPCEYNSRIYQNGESFQPNCKHQCTCIDGAVGCIPLCPQELSLPNLGCPNPRLVKVSGQCCEEWVCDEDSIKDSLDDQDDLLGLDASEVELTRNNELIAIGKGSSLKRLPVFGTEPRVLFNPLHAHGQKCIVQTTSWSQCSKSCGTGISTRVTNDNPECRLVKETRICEVRPCGQPVYSSLKKAGAACSATAKPEPVRFTYAGCSSVKKYRPKYCGSCVDGRCCTPLQTRTVKMRFRCEDGEMFSKNVMMIQSCKCNYNCPHPNEASFRLYSLFNDIHKFRD
support of 1064SK fibroblast adhesion [1]: able to support fibroblast adhesion | heparin binding [2]: somewhat decreased heparin-binding affinities

inhibition by anti-α6 antibody of binding mediated by the coated protein [1]: 70%
B5: H2: Cyr61 variant, heparin-binding motif at residues 305-310 replaced with alanine (protein)
chain: TCPAACHCPLEAPKCAPGVGLVRDGCGCCKVCAKQLNEDCSKTQPCDHTKGLECNFGASSTALKGICRAQSEGRPCEYNSRIYQNGESFQPNCKHQCTCIDGAVGCIPLCPQELSLPNLGCPNPRLVKVSGQCCEEWVCDEDSIKDSLDDQDDLLGLDASEVELTRNNELIAIGKGSSLKRLPVFGTEPRVLFNPLHAHGQKCIVQTTSWSQCSKSCGTGISTRVTNDNPECRLVKETRICEVRPCGQPVYSSLKKGKKCSKTKKSPEPVRFTYAGCSSVVAAYAPYCGSCVDGRCCTPLQTRTVKMRFRCEDGEMFSKNVMMIQSCKCNYNCPHPNEASFRLYSLFNDIHKFRD
support of 1064SK fibroblast adhesion [1]: able to support fibroblast adhesion | heparin binding [2]: somewhat decreased heparin-binding affinities

B6: Cyr61 NT: Human Cyr61 fragment with domains I, II and III, lacking heparan binding domain IV (protein)
chain: TCPAACHCPLEAPKCAPGVGLVRDGCGCCKVCAKQLNEDCSKTQPCDHTKGLECNFGASSTALKGICRAQSEGRPCEYNSRIYQNGESFQPNCQHQCTCIDGAVGCIPLCPQELSLPNLGCPNPRLVKVTGQCCEEWVCDEDSIKDPMEDQDGLLGKELGFDASEVELTRNNELIAVGKGRSLKRLPVFGMEPRILYNPLQGQKCIVQTTSWSQCSKTCGTGISTRVTNDNPECRLVKETRICEVRPCGQPVYSSLK
induction of VEGF, MMP1, MMP3 etc. [3]: do not induce the expression of the above-referenced genes | support of 1064SK fibroblast adhesion [1]: did not support fibroblast adhesion | migration of human fibroblasts [4]: did support fibroblast migration | migration of human fibroblasts ([4]; listed as human Cyr61 NT): induced 1064SK cell migration
